Target: 4-1BB-mFc (UniProt Q07011 24-186)
Assay: SPR (Biacore), multi-cycle kinetics, antibody captured by anti-human IgG on CM5 chip, 4-1BB antigen as analyte

Row | Kd [nM] | koff [s⁻¹] | kon [M⁻¹ s⁻¹] | Binder
1 | 0.338 | 0.000204 | 602000 | hu10B2 (人源化4-1BB抗体) (antibody, V domains shown, The antibody was captured with anti-human IgG in SPR; also called 4-1BB(hu10B2); hu10B2 4-1BB抗体) VH: QVQLVESGGGVVQPGRSLRLSCAASGFTFSTFGLHWVRQAPGKGLEWVAYISSDSNTIYYADTMKGRFTISRDNSKNTLYLQMNSLRAEDTAVYYCTRGDPAYYGYGGRFVYALDFWGQGTLVTVSS VL: DVVVTQTPLSLSVTPGQPASISCRSSQSLTNSYGHTYLSWYLQKPGQSPQLLIYGISIRFSGVPDRFSGSGSGTDFTLKISRVEAEDVGVYYCLQGTHQPWTFGGGTKVEIK
2 | 0.423 | 0.000122 | 289000 | hu6F9B1A6/hu10B2-scFv双功能抗体 (人源化PD-L1/4-1BB双功能抗体) (bispecific antibody, human IgG4 S228P, F234A L235A, also called hu6F9B1A6/4-1BB; hu6F9B1A6-10B2-CC) heavy: QVQLVQSGAEVKKPGSSVKVSCKASGYTFIGYTVHWVRQAPGQGLEWIGWIYPGSGSIKYNEKFKDRATLTADKSTSTVYMELSSLRSEDTAVYYCARHGTGKFNYFDVWGQGTTVTVSSASTKGPSVFPLAPCSRSTSESTAALGCLVKDYFPEPVTVSWNSGALTSGVHTFPAVLQSSGLYSLSSVVTVPSSSLGTKTYTCNVDHKPSNTKVDKRVESKYGPPCPPCPAPEAAGGPSVFLFPPKPKDTLMISRTPEVTCVVVDVSQEDPEVQFNWYVDGVEVHNAKTKPREEQFNSTYRVVSVLTVLHQDWLNGKEYKCKVSNKGLPSSIEKTISKAKGQPREPQVYTLPPSQEEMTKNQVSLTCLVKGFYPSDIAVEWESNGQPENNYKTTPPVLDSDGSFFLYSRLTVDKSRWQEGNVFSCSVMHEALHNHYTQKSLSLSPGKGGGGSGGGGSDVVVTQTPLSLSVTPGQPASISCRSSQSLTNSYGHTYLSWYLQKPGQSPQLLIYGISIRFSGVPDRFSGSGSGTDFTLKISRVEAEDVGVYYCLQGTHQPWTFGGGTKVEIKGGGGSGGGGSGGGGSQVQLVESGGGVVQPGRSLRLSCAASGFTFSTFGLHWVRQAPGKGLEWVAYISSDSNTIYYADTMKGRFTISRDNSKNTLYLQMNSLRAEDTAVYYCTRGDPAYYGYGGRFVYALDFWGQGTLVTVSS VL: DIQLTQSPSFLSASVGDRVTITCRASSTVNYMHWYQQKPGKAPKPWIYATFNLASGVPSRFSGSGSGTEYTLTISSLQPEDFATYYCQTWSSYPLTFGQGTKLEIK
